According to patent US20220177589A1 (OXFORD UNIVERSITY INNOVATION, published 2022):
Positions count from the first letter of the chain named.

T1: full length cynomolgus BTLA expressed in a Jurkat T cell line (cynomolgus monkey, UniProt Q7Z6A9 31-289 (human entry))
T1 chain: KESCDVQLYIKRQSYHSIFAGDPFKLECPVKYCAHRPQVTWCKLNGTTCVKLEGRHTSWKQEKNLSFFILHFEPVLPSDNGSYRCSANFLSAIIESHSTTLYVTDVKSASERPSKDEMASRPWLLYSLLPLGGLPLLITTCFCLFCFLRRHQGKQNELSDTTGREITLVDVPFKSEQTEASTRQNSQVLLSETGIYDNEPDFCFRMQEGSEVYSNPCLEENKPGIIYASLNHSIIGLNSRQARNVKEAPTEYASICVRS

B1: 24H7 (antibody, IgG1, V domains shown)
VH: QVQLQQSGAELVRPGASVTLSCKASGYTFTDYEIHWVKQTLVHGLEWIGPIDPDTGNTAYNQNLKGKAILTADKSSSTAYMELRSLTSEDSAVYYCTRGGYDSDWGFAYWGQGTLVTVSA
VL: DIVMTQATPSVPVTPGESVSISCRSSKSLLHSNGNTFLFWFLQRPGQSPQLLIYRMSDLASGVPDRFSGSGSGTAFTLRISRVEAEDVGIYYCMQHLEYPFTFGSGTKLEIK
B2: 6.2 (antibody, IgG1, V domains shown)
VH: EVKLVESGGGLVKPGGSLKLSCAASGFTLSSYGMSWVRQIPEKRLEWVASIRSDGNTYYPDSVKGRFIISRDNARNILYLQMSSLRSEDTAMYYCTRGGYYGSSPYYWGQGTTLTVSS
VL: DIVMSQSPSSLPVSVGEKISMTCKSSQSLLYSSNQKNYLAWYQQKPGQSPKLLIYWASTRDSGVPDRFIGSGSGTDFTLTINSVKAEDLAVYYCQQYYNYLTFGAGTKLELK
B3: 14D4 (antibody, IgG1, V domains shown)
VH: QVQLQQPGAELVKPRASVKLSCKASGYTFTSYWMHWVKQRPGQGLEWIGMIHPNNGIPNYNEKFKSKATLTVDKSSTTAYMQLSSLTSEDSAVYHCAREGYYGSEGYFDVWGTGTTVTVSS
VL: QIVLTQSPAIMSASPGEKVTMTCSASSSISYIHWYQQKPGTSPKRWIYDTSKLASGVPARFSGSGSGTSYSLTISSMEAEDAATYYCHQRSTYPYTFGGGTKLEIK
B4: 4B1 (antibody, IgG1, V domains shown)
VH: QVQLQQSGAELARPGASVRLSCKASGYTFTSYGLIWLKQRTGQGLEWIGEIYPRSGSTYYNEWFKGKATLTADKSSNTAFMELRSLTSEDSAVYFCARRRGTGDGFDYWGQGTILTVSS
VL: DIQMTQTTSSLSASLGDRVTISCSASQGISNYLNWYQQKPDGTVKLLIYYTSSLHSGVPSRFSGSGSGTDYSLTISNLEPEDIATYYCQQYIELPFTFGSGTKLEIK
B5: 8B4 (antibody, IgG1, V domains shown)
VH: QVQLQQSGAELARPGASVKLPCKASGYTFTSYGISWVKQRTGQGLEWIGEIYPRSGTTYYNEKFKGKATLTADKSSSTAYMELRSLTSEDSAVYFCARRISSGSGVDYWGQGTTLTVSS
VL: B4 VL with I92S, F96W, S100G
B6: 11.5.1 (antibody, IgG1, V domains shown)
VH: EVQLQESGPSLVKPSQTLSLTCSVTGDSITSAYWNWIRKFPGNKLEYMGYISYSGSTYFNPSLKSRISITRNTSKNQYYLQLNSVTTEDTATYYCARSHYYGYYFDYWGHGTTLTVSS
VL: DIVLTQSPASLAVSLGQRATISCRASETIDSYGDSLMHWYQQKAGQPPKLLIYRASNLESGIPARFSGSGSRTDFTLTINPVEADDVATYYCQQTDEDPYTFGGGTKLEIK
B7: 16H2 (antibody, IgG1, V domains shown)
VH: EVQLQQSGPELVQPGASVKISCKASGYTFTDYYMIWVKQSHGKSLEWIGNINPNNGGTTYNQKFKGKATLTVDKSSSTAYMGLPSLTSEDSAVYYCARGGLRPLYFDYWGQGTTLTVSS
VL: NIVMTQSPKSMSMSVGERVTLSCKASENVDTYVSWYQQKPEQSPKLLIYGASNRYTGVPDRFTGSGSATDFTLTISSVQAEDLADYHCGQSYSYPLTFGAGTKLELI
B8: 831 (antibody, V domains shown)
VH: DVQLQESGPDLVKPSQSLSVTCTVTGYSITSGYSWHWIRQFPGNKLEWMGYIHYSGSTNYNPSLKSRISITRDTSKNQFFLQLSSVTTEDTATYYCASGPHRYDGVWFAYWGQGTLVTVSS
VL: EIVLTQSPTTMAASPGEKITITCSASSSISSNYLHWYQQKPGFSPKLLIYRTSNLASGVPARFSGSGSGTSYSLTIGTMEAEDVATYYCQQGTNIPLTFGAGTKLEIK
B9: 21C7 (antibody, IgG1, V domains shown)
VH: QIQLQQSGPELVKPGASVKISCKASGYAFSSSWMNWVKKRPGKGLEWIGRIYPGDGDANYNGKFKGKATLTADKSSSTAYMQLSSLTSEDSAVYFCAGEGHYYGSGYRWYLDVWGTGTTVTVSS
VL: DIQMTQSPASLSVSVGETVTITCRASENIYSNLAWYQQKQGKSPQLLVYAATNLADGVPSRFSGSGSGTQYSLKINSLQSEDFGSYYCQHFRGAPFTFGSGTKLEIK
B10: 2.8.6 (antibody, IgG1, V domains shown)
VH: QVQLKESGPGLVAPSQSLSITCTVSGFSLTTYGVHWVRQSPGKGLEWLGVMWPGGRTSYNPAPMSRLSISKDNSKSQVFLKMNSLQTDDTAMYYCVRGDYEYDYYAMDYWGQGTSVTVSS
VL: QIVLSQSPAILSASPGEKVTMTCRASSSVSYMHWYQQKPGSSPKPWIYATSNLASGVPARFSGSGSGTSYSLTISRMEAEDAATYYCHQWSSNPYTFGGGTKLEIK

The binders below were run against T2, chimeric BTLA of humanised-BTLA mice (human extracellular region, murine transmembrane and signaling … (human; mouse, UniProt Q7TSA3 184-306, limits assumed) (assay: cell-based or functional assay).
T2 sequence (Q7TSA3 other isoform, or with tags, fused parts or gaps mutant limits assumed): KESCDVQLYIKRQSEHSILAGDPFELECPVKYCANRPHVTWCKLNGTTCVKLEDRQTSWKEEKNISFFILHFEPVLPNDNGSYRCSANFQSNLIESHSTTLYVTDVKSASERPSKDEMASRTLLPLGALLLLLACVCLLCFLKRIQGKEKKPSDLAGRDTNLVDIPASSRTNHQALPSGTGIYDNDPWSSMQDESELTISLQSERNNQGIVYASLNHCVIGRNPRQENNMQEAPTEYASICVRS

In order of falling “AntiCD3/CD28 (CD4 T cell proliferation) repeat 1, % inhibition” value:
1. B3  24%
2. B10  23%
3. B6  21%
4. B5  20%
5. B2  19%
6. B4  14%
7. B1  13%
8. B7  11%
9. B8  10%
10. B9  10%

In order of rising “AntiCD3/CD28 (CD4 T cell proliferation) repeat 2, % inhibition” value:
1. B9  -4%
2. B5  4%
3. B8  8%
4. B4  18%
5. B2  21%
6. B1  23%
7. B7  23%
8. B6  28%
9. B3  29%
10. B10  35%

In order of falling “AntiCD3/CD28 (CD69+ CD4 T cells) repeat 1, % inhibition” value:
1. B10  58%
2. B2  53%
3. B1  52%
4. B5  51%
5. B7  51%
6. B6  50%
7. B8  50%
8. B4  47%
9. B3  43%
10. B9  39%

In order of falling “AntiCD3/CD28 (CD69+ CD4 T cells) repeat 2, % inhibition” value:
1. B10  67%
2. B2  61%
3. B7  60%
4. B8  53%
5. B3  52%
6. B5  47%
7. B6  47%
8. B1  44%
9. B4  41%
10. B9  35%

In order of rising “MLR (CD4 T cell proliferation) repeat 1, % inhibition” value:
1. B9  8%
2. B1  23%
3. B6  23%
4. B8  25%
5. B10  30%
6. B2  31%
7. B4  33%
8. B5  33%
9. B3  39%
10. B7  40%

In order of falling “MLR (CD4 T cell proliferation) repeat 2, % inhibition” value:
1. B10  36%
2. B2  35%
3. B8  34%
4. B1  31%
5. B4  30%
6. B3  26%
7. B7  26%
8. B5  23%
9. B6  18%
10. B9  17%

What follows are binders tested against full length human BTLA expressed in a Jurkat T cell line (human, UniProt Q7Z6A9 31-289) (assay: cell-based or functional assay).

In order of falling “T cell reporter (NFkB signaling), % inhibition” value:
1. B7  29%
2. B2  26%
3. B5  24%
4. B8  24%
5. B4  23%
6. B9  23%
7. B1  22%
8. B3  16%

Biological target: T1, full length cynomolgus BTLA expressed …
Test: cell-based or functional assay

In order of rising “IC50, inhibition of NFkB-GFP reporter in BTLA transfected Jurkat cells” value:
1. B6  140 pM
2. B10  220 pM

Biological target: T2, chimeric BTLA of humanised-BTLA mice …
Test: cell-based or functional assay
Remark: another data set of the same source

In order of falling “IC50, inhibition of CD4 T cell proliferation in a mixed lymphocyte reaction” value:
1. B10  29 pM
2. B6  16 pM
